Kd and median KD data for two substances are collected here from article PMC8744954.

Experiment [1] deals with p53 proteins tested (wild type p53 and 46 common clinical mutants). As to the kind of experiment: SPR; NAPPA-SPRi: p53 proteins with GST-E-coil translated in situ and captured by K-coil peptide on a gold slide; purified full-length MDM2 20 μg/mL injected at 3 μL/s; running buffer 1x PBS, 1% Tween 20; 1:1 fit with Scrubber 2.0; apparent constants.
Experiment [2] deals with Jun (Homo sapiens) (UniProt P05412). The settings on record: cited from earlier work.
Sequence of UniProt P05412 (P05412 whole entry): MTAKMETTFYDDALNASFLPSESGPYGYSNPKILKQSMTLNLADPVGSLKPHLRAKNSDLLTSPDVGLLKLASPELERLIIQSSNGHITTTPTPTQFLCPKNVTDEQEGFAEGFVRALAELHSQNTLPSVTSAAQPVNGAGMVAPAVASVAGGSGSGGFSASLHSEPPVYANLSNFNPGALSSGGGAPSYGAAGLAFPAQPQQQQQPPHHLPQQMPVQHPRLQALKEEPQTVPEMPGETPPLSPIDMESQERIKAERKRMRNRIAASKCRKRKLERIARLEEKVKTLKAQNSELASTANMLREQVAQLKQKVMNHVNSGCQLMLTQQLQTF

Turning to “MDM2, full-length purified recombinant (from UniProt Q00987 1-491) (natural protein)”, in experiment [1], the Kd was in the range of 2.85 to 1350 nM and the median KD came out at 105 nM.
For Fos (from UniProt P01100), the Kd in experiment [2] was 1 nM.
